System: Escherichia coli TOP10
Assay: shrunken log2 fold change of peptide-encoding DNA abundance (4.5 h post-induction vs induction); higher = less antimicrobial activity (less host growth inhibition)
Conditions: time post-induction: 4.5 h; library: site-saturation at positions 5, 18, 19, 20
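Further: peptides expressed intracellularly from a pBAD plasmid library in pooled LB shake-flask culture, induced with 0.3% L-arabinose, DNA abundance read by NGS, three biological replicates, DESeq2 with apeglm shrinkage.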

Sequence | shrunken log2 fold change
RRIRKRPPRLPRPRPRPMKCPRP | 0.0794
RRIRRRPPRLPRPRPRPWANPRP | 0.0142
RRIRWRPPRLPRPRPRPPRHPRP | 0.608
RRIRLRPPRLPRPRPRPAKQPRP | 0.0963
RRIRTRPPRLPRPRPRPKNVPRP | 0.0149
RRIRLRPPRLPRPRPRPAEWPRP | 0.0143
RRIRERPPRLPRPRPRPDTGPRP | -0.161
RRIRPRPPRLPRPRPRPHSCPRP | -0.11
RRIRRRPPRLPRPRPRPTTAPRP | 0.541
RRIRRRPPRLPRPRPRPGSMPRP | -0.387
RRIRNRPPRLPRPRPRPNRRPRP | -0.133
RRIRARPPRLPRPRPRPMTKPRP | 0.248
RRIRMRPPRLPRPRPRPAMVPRP | 0.501
RRIRSRPPRLPRPRPRPAGMPRP | 0.223
RRIRKRPPRLPRPRPRPRTFPRP | 0.243
RRIRRRPPRLPRPRPRPPWAPRP | 0.729
RRIRCRPPRLPRPRPRPKKSPRP | -0.0331
RRIRWRPPRLPRPRPRPNHQPRP | -0.342
RRIRQRPPRLPRPRPRPHHCPRP | -0.652
RRIRFRPPRLPRPRPRPCGEPRP | -0.0646

Sequence | shrunken log2 fold change
RRIRARPPRLPRPRPRPPQVPRP | 0.162
RRIRLRPPRLPRPRPRPRDLPRP | 0.0268
RRIRRRPPRLPRPRPRPDCPPRP | 0.4
RRIRMRPPRLPRPRPRPIRAPRP | 0.3
RRIRHRPPRLPRPRPRPTRWPRP | 0.137
RRIRLRPPRLPRPRPRPWQRPRP | -0.161
RRIRFRPPRLPRPRPRPASEPRP | 0.21
RRIRYRPPRLPRPRPRPQMTPRP | 0.0454
RRIRYRPPRLPRPRPRPYLVPRP | -0.536
RRIRIRPPRLPRPRPRPMSVPRP | 0.0466
RRIRQRPPRLPRPRPRPDSTPRP | 0.139
RRIRQRPPRLPRPRPRPGDEPRP | 0.021
RRIRYRPPRLPRPRPRPMQAPRP | -0.0122
RRIRMRPPRLPRPRPRPGWIPRP | -0.0121
RRIRGRPPRLPRPRPRPDTQPRP | 0.632
RRIRERPPRLPRPRPRPCAAPRP | -0.244
RRIRYRPPRLPRPRPRPTDKPRP | -0.347
RRIRYRPPRLPRPRPRPNLGPRP | -0.0146
RRIRKRPPRLPRPRPRPWMCPRP | -0.316
RRIRRRPPRLPRPRPRPIPSPRP | 0.247

Sequence | shrunken log2 fold change
RRIRLRPPRLPRPRPRPQVLPRP | -0.0429
RRIRARPPRLPRPRPRPNCRPRP | 0.0806
RRIRCRPPRLPRPRPRPGLFPRP | 0.154
RRIRGRPPRLPRPRPRPWGTPRP | 0.0721
RRIRTRPPRLPRPRPRPIDIPRP | 0.0364
RRIRSRPPRLPRPRPRPEDKPRP | -0.00968
RRIRKRPPRLPRPRPRPWIFPRP | 0.287
RRIRIRPPRLPRPRPRPCLRPRP | -1.04
RRIRSRPPRLPRPRPRPDLNPRP | 0.0448
RRIRWRPPRLPRPRPRPPTFPRP | -0.0697
RRIRERPPRLPRPRPRPGSKPRP | -0.129
RRIRPRPPRLPRPRPRPKVLPRP | 0.038
RRIRPRPPRLPRPRPRPGIGPRP | 0.208
RRIRFRPPRLPRPRPRPVRWPRP | 0.632
RRIRERPPRLPRPRPRPATDPRP | -0.00755
RRIRFRPPRLPRPRPRPFYQPRP | -0.537
RRIRARPPRLPRPRPRPHLLPRP | -0.0598
RRIRNRPPRLPRPRPRPEPDPRP | 0.0698
RRIRKRPPRLPRPRPRPDWVPRP | 0.0285
RRIRWRPPRLPRPRPRPHTVPRP | 0.00981

— the supplement of paper PMC9112550, “Optimization of the antimicrobial peptide Bac7 by deep mutational scanning” (BMC Biology, 2022)
